How the values were obtained:
[1] = target: Myosin light chain kinase (MLCK), human, recombinant, GST-tagged (human) (UniProt Q15746)
[2] = target: Calcineurin (PPase-2B, CaN) (bovine)
[3] = target: Phosphodiesterase I, 3',5'-cyclic-nucleotide-specific (PDE) (bovine) (UniProt P14100)
Sequence of Phosphodiesterase I, 3',5'-cyclic-nucleotide-specific (PDE) (bovine) (P14100 whole entry): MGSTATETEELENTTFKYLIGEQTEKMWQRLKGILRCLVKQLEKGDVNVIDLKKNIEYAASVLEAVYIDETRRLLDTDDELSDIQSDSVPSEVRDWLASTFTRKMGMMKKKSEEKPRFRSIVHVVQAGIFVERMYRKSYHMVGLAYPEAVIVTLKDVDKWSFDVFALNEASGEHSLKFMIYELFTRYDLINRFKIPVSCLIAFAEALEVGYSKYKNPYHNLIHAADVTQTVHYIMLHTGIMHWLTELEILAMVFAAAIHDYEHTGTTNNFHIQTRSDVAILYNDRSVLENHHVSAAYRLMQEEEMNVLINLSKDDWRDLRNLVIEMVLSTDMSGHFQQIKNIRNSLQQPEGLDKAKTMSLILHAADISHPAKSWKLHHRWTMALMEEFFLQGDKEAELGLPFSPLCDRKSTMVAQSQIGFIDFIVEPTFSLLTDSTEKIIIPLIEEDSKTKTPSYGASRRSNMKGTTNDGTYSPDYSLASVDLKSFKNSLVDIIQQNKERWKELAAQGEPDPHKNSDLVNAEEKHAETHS

Sequence of Myosin light chain kinase (MLCK), human, recombinant, GST-tagged (human) (Q15746 whole entry): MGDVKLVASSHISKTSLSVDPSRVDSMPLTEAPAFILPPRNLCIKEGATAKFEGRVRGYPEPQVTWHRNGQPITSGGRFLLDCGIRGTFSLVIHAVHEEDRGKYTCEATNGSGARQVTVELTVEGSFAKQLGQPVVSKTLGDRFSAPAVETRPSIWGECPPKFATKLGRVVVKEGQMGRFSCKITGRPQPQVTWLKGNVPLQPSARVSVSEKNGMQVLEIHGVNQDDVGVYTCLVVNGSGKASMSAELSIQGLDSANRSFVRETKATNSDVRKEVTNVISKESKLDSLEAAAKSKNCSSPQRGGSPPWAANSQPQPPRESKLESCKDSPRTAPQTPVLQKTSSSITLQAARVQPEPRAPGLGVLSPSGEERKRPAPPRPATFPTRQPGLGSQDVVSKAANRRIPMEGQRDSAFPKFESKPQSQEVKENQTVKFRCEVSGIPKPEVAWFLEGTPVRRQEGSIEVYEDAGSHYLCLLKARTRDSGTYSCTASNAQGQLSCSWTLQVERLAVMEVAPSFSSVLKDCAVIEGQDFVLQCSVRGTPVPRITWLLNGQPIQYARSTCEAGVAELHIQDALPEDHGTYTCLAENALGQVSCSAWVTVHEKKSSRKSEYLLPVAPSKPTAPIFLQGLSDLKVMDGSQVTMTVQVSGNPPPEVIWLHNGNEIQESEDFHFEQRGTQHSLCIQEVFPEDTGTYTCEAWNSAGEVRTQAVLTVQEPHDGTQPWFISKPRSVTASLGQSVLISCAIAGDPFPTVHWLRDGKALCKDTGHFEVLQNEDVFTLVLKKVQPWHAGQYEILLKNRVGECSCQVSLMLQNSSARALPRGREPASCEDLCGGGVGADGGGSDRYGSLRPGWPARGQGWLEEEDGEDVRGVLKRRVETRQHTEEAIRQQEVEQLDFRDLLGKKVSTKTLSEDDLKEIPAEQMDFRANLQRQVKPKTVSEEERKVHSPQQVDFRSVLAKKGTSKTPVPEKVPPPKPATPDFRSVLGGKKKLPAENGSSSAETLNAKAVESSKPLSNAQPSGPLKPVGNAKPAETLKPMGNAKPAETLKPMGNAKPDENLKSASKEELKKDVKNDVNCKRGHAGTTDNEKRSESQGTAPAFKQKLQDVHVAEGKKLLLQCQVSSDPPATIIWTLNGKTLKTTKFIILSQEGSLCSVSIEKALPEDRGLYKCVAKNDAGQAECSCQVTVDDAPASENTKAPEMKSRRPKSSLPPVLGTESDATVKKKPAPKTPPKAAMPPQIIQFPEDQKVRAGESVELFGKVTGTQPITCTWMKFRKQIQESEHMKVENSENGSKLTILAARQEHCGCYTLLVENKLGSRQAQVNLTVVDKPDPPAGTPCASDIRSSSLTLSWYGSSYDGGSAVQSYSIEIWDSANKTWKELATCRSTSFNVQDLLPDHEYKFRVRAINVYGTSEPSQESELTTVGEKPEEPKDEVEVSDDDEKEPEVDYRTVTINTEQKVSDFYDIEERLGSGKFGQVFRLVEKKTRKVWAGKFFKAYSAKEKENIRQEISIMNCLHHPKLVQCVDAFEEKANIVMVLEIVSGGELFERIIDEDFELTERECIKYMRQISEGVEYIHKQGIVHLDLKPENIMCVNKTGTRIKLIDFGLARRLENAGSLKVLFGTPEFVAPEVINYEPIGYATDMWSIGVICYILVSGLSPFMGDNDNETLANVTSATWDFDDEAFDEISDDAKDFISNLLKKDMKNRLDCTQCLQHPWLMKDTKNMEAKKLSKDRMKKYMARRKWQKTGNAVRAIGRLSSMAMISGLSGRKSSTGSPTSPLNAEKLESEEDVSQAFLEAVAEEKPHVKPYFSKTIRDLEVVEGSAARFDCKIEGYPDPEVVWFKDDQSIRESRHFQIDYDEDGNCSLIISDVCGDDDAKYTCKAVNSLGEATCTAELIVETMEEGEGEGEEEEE

activation of MLCK kinase activity (ADP-Glo luminescence, room temperature, 0.5 mmol/L CaCl2) against the CaM concentration, EC50 [1]: 5.6 nM
activation of CaN phosphatase activity (PNPP dephosphorylation) by CaM, fold over the basal activity [2]: 2.34 fold
activation of CaN phosphatase activity (PNPP dephosphorylation, 28°C) against the CaM concentration, EC50 [2]: 0.67 nM
activation of PDE activity (mant-cGMP hydrolysis, 25°C, 150 nmol/L CaM, 6.5 nmol/L PDE, 1 mmol/L CaCl2), fold over the basal activity [3]: 2 fold
Substance: Human recombinant calmodulin (CaM) (from UniProt P0DP23 1-149) (natural protein)

Source: article PMC7429351, “Comparison of ligand binding and conformational stability of human calmodulin with its homolog from the malaria parasite Plasmodium falciparum” (FASEB BioAdvances, 2020)
